Data reported in US20170247475A1 (Boehringer Ingelheim, published 2017).
Substitutions are numbered along the chain they refer to. Like-named read-outs stand apart in the source and are kept apart here.

B1: 1D01 (VHH)
VHH: EVQLVESGGGLVQAGGSLRLSCAASGFTFDDYALGWFRQAAGKEREGVSCIRCSDGSTYYADSVKGRFTISSDNAKNTVYLQMNSLKPEDTAVYYCAASIVPRSKLEPYEYDAWGQGTQVTVSS
notes: also called 01D01
B2: ANGBII00005 (VHH)
bivalent VHH: EVQLVESGGGLVQAGGSLRLSCAASGFTLDDYAIGWFRQAPGKEREGVSSIRDNDGSTYYADSVKGRFTISSDNDKNTVYLQMNSLKPEDTAVYYCAAVPAGRLRFGEQWYPLYEYDAWGQGTLVTVSSGGGGSGGGGSGGGGSGGGGSGGGGSGGGGSGGGGSGGGGSEVQLVESGGGLVQAGGSLRLSCAASGFTLDDYAIGWFRQAPGKEREGVSSIRDNDGSTYYADSVKGRFTISSDNDKNTVYLQMNSLKPEDTAVYYCAAVPAGRLRFGEQWYPLYEYDAWGQGTLVTVSS
notes: homodimeric anti-Ang2 VHH; also called 00027-40gs-00027
B3: VEGFBII23A06 (VHH)
VHH: EVQLVESGGGLVQPGDSLKLSCAFSGRTFSSYSMGWFRQAQGKEREFVVAISSGGFIYDAVSLEGRFTISRDNTKNTVYLQTPSLKPEDTAVYYCAASRAYGSSRLRLADTYDYWGQGTQVTVSS
notes: also called 23A6; VEGFBII23A6
B4: VEGFBII24C04 (VHH)
VHH: B3 VHH with A23V, F24A, F29S, F56Y, A60S, E64Q
notes: also called VEGFBII24C4

Legend:
[1] = molecular target: T1, mAng2; assay: competition ELISA, blocking of mAng2 binding to mTie2
T1 construct: also called mouse Ang2
T1 chain: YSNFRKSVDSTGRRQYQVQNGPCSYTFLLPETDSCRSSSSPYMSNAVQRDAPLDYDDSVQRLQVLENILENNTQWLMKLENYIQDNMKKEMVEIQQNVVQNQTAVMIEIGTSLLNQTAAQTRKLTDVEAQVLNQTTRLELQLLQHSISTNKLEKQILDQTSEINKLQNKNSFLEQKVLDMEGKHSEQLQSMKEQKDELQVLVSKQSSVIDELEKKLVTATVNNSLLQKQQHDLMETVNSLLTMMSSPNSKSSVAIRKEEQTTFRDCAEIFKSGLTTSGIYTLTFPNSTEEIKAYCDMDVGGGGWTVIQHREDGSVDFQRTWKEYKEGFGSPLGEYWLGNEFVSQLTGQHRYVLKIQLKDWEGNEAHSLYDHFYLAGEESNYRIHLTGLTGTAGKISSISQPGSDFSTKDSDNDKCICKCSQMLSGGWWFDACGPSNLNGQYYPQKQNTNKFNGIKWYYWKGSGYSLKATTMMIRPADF

[2] = molecular target: T2, cAng2 (cynomolgus monkey); assay: competition ELISA, blocking of cAng2 binding to cTie2
T2 construct: also called cyno Ang2

[3] = molecular target: T3, hAng2; assay: competition ELISA, blocking of hAng2 binding to hTie2
T3 construct: also called human Ang2
T3 chain: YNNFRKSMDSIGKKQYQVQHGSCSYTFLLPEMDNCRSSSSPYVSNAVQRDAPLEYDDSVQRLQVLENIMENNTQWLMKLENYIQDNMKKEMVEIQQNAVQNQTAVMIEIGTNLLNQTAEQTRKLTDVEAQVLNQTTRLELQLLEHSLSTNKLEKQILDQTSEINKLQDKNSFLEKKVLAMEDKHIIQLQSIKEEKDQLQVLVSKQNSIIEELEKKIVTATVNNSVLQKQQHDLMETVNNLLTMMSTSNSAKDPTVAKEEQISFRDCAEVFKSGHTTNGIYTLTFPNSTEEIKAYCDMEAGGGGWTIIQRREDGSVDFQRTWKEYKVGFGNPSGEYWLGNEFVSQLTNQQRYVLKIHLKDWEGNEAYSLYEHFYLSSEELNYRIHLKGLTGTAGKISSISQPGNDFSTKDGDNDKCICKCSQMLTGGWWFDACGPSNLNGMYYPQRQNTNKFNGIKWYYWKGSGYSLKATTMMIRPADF

[4] = molecular target: T3, hAng2; assay: as above
[5] = molecular target: T1, mAng2; assay: competition ELISA, blocking of mAng2 binding to mTie2
[6] = molecular target: VEGF; assay: cell-based or functional assay
[7] = molecular target: T4, recombinant human VEGF165 (human, UniProt P15692-4 27-191); assay: hVEGF165/hVEGFR2-Fc competition AlphaScreen
T4 construct: also called hVEGF165; rhVEGF165
Method: (§1) Finally, streptavidin donor beads (20 μg/ml) are added and after 1 hour of incubation in the dark, fluorescence is measured on the Envision microplate reader.

[8] = molecular target: T4, recombinant human VEGF165; assay: binding ELISA, coated rhVEGF165
[9] = molecular target: T4, recombinant human VEGF165; assay: hVEGF165/hVEGFR1-Fc competition AlphaScreen
Method: as §1

[10] = molecular target: T5, recombinant human VEGF121 (human, UniProt P15692-9 27-147); assay: binding ELISA, coated rhVEGF121
T5 construct: also called rhVEGF121; hVEGF121
T5 sequence (looked up): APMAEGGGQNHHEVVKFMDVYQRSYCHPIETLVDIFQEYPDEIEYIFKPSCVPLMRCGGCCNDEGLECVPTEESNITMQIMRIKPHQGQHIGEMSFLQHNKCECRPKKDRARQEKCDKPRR
Method: Binding to recombinant human VEGF121 is assessed via a solid phase binding ELISA. Briefly, recombinant human VEGF121 (R&D Systems, Minneapolis, Minn., USA) is coated overnight at 4° C. at 1 μg/mL in a 96-well MaxiSorp plate (Nunc, Wiesbaden, Germany). Wells are blocked with a casein solution (1% in PBS).

[11] = molecular target: T4, recombinant human VEGF165; assay: kd1; SPR Biacore T100, hVEGF165 on chip, Two State Reaction model
Method: (§2) Samples are injected for 2 min and allowed to dissociate up to 20 min at a flow rate of 45 μI/min. In between sample injections, the chip surface is regenerated with 100 mM HCl. HBS-EP+(Hepes buffer pH7.4+EDTA) is used as running buffer. Binding curves are fitted using a Two State Reaction model by Biacore T100 Evaluation Software v2.0.1.
(§3) ^{(a)}Heterogeneous binding curve resulting in no 1:1 fit, curves are fitted using a Two State Reaction model by Biacore T100 Evaluation Software v2.0.1

[12] = molecular target: T4, recombinant human VEGF165; assay: ka1; SPR Biacore T100, hVEGF165 on chip, Two State Reaction model
Method: as §2, §3

[13] = molecular target: T6, recombinant mouse VEGF164 (mouse, UniProt Q00731-2 27-190); assay: binding ELISA, coated rmVEGF164
T6 construct: biotinylated in the mVEGFR2 AlphaScreen; also called rmVEGF164; mVEGF164
T6 sequence (looked up): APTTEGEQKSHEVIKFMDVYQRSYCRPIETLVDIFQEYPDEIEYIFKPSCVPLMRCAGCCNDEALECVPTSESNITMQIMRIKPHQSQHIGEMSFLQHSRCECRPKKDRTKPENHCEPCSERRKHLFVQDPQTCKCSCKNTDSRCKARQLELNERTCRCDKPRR
Method: Cross-reactivity to mouse VEGF164 is determined using a binding ELISA. […] Wells are blocked with a casein solution (1% in PBS). […] A mouse VEGF164 reactive mAb is included as positive control.

[14] = molecular target: T4, recombinant human VEGF165; assay: SPR Biacore T100, hVEGF165 on chip, Two State Reaction model
Method: as §2, §3

[15] = molecular target: T4, recombinant human VEGF165; assay: hVEGF165/hVEGFR2-Fc competition ELISA
[16] = molecular target: T4, recombinant human VEGF165; assay: hVEGF165/hVEGFR1-Fc competition ELISA
[17] = molecular target: T4, recombinant human VEGF165; assay: Biacore, periplasmic extract on hVEGF165 chip
Method: (§4) Dissociation rates of inhibitory VHHs are analyzed on Biacore (Biacore T100 instrument, GE Healthcare). HBS-EP+ buffer is used as running buffer and experiments are performed at 25° C. […] After immobilization, surfaces are deactivated with 10 min injection of 1M ethanolamine pH8.5. A reference surface is activated and deactivated with respectively EDC/NHS and ethanolamine. Periplasmic extracts of VHHs are injected at a 10-fold dilution in running buffer for 2 min at 45 μl/min and allowed to dissociate for 10 or 15 min. Between different samples, the surfaces are regenerated with regeneration buffer. Data are double referenced by subtraction of the curves on the reference channel and of a blank running buffer injection. […] is evaluated by fitting a two phase decay model in the Biacore T100 Evaluation software v2.0.1.
Target sequence in this assay (P15692 other isoform, or with tags, fused parts or gaps limits assumed): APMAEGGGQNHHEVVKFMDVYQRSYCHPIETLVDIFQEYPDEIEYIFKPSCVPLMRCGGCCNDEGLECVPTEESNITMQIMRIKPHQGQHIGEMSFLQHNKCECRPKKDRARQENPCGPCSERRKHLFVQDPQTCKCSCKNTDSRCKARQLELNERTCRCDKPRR

[18] = molecular target: T4, recombinant human VEGF165; assay: Biacore, periplasmic extract on hVEGF165 chip, two phase decay fit
Method: as §4
Target sequence in this assay (P15692 other isoform, or with tags, fused parts or gaps limits assumed): as above

[19] = molecular target: T7, human VEGF-B (human, UniProt P49765-2 22-188, limits assumed); assay: solid phase binding ELISA
T7 construct: also called hVEGF-B
T7 sequence (looked up): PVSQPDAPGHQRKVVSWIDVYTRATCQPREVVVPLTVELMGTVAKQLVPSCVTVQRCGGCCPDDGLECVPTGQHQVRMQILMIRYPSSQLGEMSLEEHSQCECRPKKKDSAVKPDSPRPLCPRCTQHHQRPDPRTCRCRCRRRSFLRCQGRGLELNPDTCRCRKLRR
Method: (§5) Binding to VEGFB, VEGFC, VEGFD and PIGF is assessed via a solid phase binding ELISA. In brief, VEGFB, VEGFC, VEGFD and PIGF (R&D Systems, Minneapolis, Minn., USA) are coated overnight at 4° C. at 1 μg/mL in a 96-well MaxiSorp plate (Nunc, Wiesbaden, Germany). Wells are blocked with a casein solution (1% in PBS). […] As positive controls serial dilutions of the appropriate receptors are taken along and detected with horseradish peroxidase (HRP)-conjugated goat anti-human IgG, Fc specific antibody (Jackson Immuno Research Laboratories Inc., West Grove, Pa., USA) and a subsequent enzymatic reaction in the presence of the substrate TMB (3,3′,5,5′-tetramentylbenzidine) (Pierce, Rockford, Ill., USA).

[20] = molecular target: T8, human VEGF-D (human, UniProt O43915 93-201); assay: solid phase binding ELISA
T8 construct: also called hVEGF-D
T8 sequence (looked up): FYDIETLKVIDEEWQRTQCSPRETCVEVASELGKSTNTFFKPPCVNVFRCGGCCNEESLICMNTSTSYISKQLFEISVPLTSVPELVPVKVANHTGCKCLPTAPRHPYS
Method: as §5

[21] = molecular target: T9, human PIGF (human, UniProt P49763-2 21-149, limits assumed); assay: solid phase binding ELISA
T9 construct: also called hPIGF; PLGF
T9 sequence (looked up): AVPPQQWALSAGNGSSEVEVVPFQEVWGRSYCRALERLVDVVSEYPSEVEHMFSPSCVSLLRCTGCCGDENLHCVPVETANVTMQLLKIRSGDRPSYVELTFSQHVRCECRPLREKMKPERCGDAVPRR
Method: as §5

[22] = molecular target: T10, human VEGF-C (human, UniProt P49767 103-227); assay: solid phase binding ELISA
T10 construct: also called hVEGF-C
T10 sequence (looked up): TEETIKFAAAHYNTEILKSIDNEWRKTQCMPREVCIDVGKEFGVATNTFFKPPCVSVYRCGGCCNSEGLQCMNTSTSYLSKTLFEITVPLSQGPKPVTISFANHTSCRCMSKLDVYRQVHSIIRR
Method: as §5

| Binder | % inhibition, VEGF HUVEC proliferation assay [6] | IC50 (nM), VEGF HUVEC proliferation assay [6] | % inhibition [7] | IC50 [7] | EC50 [8] | % inhibition [9] | IC50 [9] | EC50 [10] | koff [11] | kon [12] | binding result [13] | Kd [14] | kd2 [14] | % inhibition [15] | IC50 [15] | % inhibition [16] | IC50 [16] | Binding level (RU) [17] | % fast [18] | binding result [19] | further results |
| --- | --- | --- | --- | --- | --- | --- | --- | --- | --- | --- | --- | --- | --- | --- | --- | --- | --- | --- | --- | --- | --- |
| B1 |  |  |  |  |  |  |  |  |  |  |  |  |  |  |  |  |  |  |  |  | IC50 (read off the curve) [1]: ~20 nM; IC50 (read off the curve) [2]: ~8 nM; IC50 (read off the curve) [3]: ~10 nM |
| B2 |  |  |  |  |  |  |  |  |  |  |  |  |  |  |  |  |  |  |  |  | IC50 (read off the curve) [4]: ~0.01 nM; IC50 (read off the curve) [5]: ~0.03 nM |
| B3 | 73% | 4.29 nM | 100% | 0.25 nM | 0.531 nM | 46% | 0.4 nM | 0.928 nM | 0.057 s⁻¹ | 420000 M⁻¹ s⁻¹ | no binding (tested: 500 nM-32 pM) | 0.7 nM | 0.0001 s⁻¹ | 100% | 3 nM | 55% | 0.9 nM | 547 RU | 13% | no binding (tested: 500 nM-32 pM) | binding result [20]: no binding (tested: 500 nM-32 pM); binding result [21]: no binding (tested: 500 nM-32 pM); binding result [22]: no binding (tested: 500 nM-32 pM) |
| B4 | 79% | 3.8 nM | 100% | 0.25 nM | 0.453 nM | 53% | 0.2 nM | 0.792 nM | 0.026 s⁻¹ | 320000 M⁻¹ s⁻¹ | no binding (tested: 500 nM-32 pM) | 0.4 nM | 9.6e-05 s⁻¹ | 100% | 2.5 nM | 71% | 0.8 nM | 456 RU | 17% | no binding (tested: 500 nM-32 pM) | binding result [20]: no binding (tested: 500 nM-32 pM); binding result [21]: no binding (tested: 500 nM-32 pM); binding result [22]: no binding (tested: 500 nM-32 pM) |
